T1: EsCas13d, nuclease-dead (Eubacterium siraeum, UniProt B0MS50, R295A;H300A;R849A;H854A)
T1 sequence: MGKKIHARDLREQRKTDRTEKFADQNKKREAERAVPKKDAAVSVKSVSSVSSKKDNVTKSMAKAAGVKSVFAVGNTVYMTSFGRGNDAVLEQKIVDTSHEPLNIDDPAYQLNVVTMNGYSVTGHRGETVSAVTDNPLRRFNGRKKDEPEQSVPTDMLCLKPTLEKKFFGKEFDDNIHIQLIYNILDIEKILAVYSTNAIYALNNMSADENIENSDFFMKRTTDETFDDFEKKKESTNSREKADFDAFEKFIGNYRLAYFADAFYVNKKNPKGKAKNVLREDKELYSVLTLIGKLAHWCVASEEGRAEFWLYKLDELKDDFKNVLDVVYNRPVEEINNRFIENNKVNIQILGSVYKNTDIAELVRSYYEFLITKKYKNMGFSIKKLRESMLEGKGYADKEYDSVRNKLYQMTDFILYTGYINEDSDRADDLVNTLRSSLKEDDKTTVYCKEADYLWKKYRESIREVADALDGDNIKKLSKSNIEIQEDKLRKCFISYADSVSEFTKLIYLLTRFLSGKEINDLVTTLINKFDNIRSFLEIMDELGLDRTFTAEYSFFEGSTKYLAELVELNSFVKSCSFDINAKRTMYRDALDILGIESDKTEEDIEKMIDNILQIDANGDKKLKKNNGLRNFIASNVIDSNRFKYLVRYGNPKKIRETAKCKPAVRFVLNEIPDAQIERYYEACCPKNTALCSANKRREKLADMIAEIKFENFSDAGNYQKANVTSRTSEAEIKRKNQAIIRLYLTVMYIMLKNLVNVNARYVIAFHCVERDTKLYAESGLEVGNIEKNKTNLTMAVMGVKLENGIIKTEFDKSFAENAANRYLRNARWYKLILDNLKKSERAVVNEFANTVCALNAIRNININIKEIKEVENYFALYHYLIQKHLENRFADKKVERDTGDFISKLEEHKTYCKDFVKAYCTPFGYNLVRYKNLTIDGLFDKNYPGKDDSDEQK

B1: target 1 G13U,A14U (mixed)
RNA 1: CACCCGUGCAAAAAUGCAGGGGUCUAAAACUGAGCGGAUAACCUCUCUAUGG
RNA 2: GGGAAUGGAUCCACAUCUACGAAUUCGUACCAUAGAGUUGUUAUCCGCUCACCGAGAUCGGAAGAGCACACGU
B2: target 1 insC 3' of 9,insA 3' of 4 (mixed)
RNA 1: B1 RNA 1
RNA 2: GGGAAUGGAUCCACAUCUACGAAUUCGUACCAUAGAGAGGUUACUCCGCAUCACCGAGAUCGGAAGAGCACACGU
B3: target 1 insU 3' of 22,insC 3' of 1 (mixed)
RNA 1: B1 RNA 1
RNA 2: GGGAAUGGAUCCACAUCUACGAAUUCGUACUCAUAGAGAGGUUAUCCGCUCACCCGAGAUCGGAAGAGCACACGU
B4: target 1 C4G,U10A (mixed)
RNA 1: B1 RNA 1
RNA 2: B1 RNA 2 with U38A, U39G, U42A, C48G
B5: target 1 insA 3' of 19,insU 3' of 12 (mixed)
RNA 1: B1 RNA 1
RNA 2: GGGAAUGGAUCCACAUCUACGAAUUCGUACCAUAAGAGAGGUUUAUCCGCUCACCGAGAUCGGAAGAGCACACGU
B6: target 1 insC 3' of 8 (mixed)
RNA 1: B1 RNA 1
RNA 2: GGGAAUGGAUCCACAUCUACGAAUUCGUACCAUAGAGAGGUUAUCCCGCUCACCGAGAUCGGAAGAGCACACGU
B7: target 1 insU 3' of 7,insA 3' of 5 (mixed)
RNA 1: B1 RNA 1
RNA 2: B2 RNA 2 with C44U, U45C, C46U, C49A, A50C
B8: target 1 del9,del13 (mixed)
RNA 1: B1 RNA 1
RNA 2: GGGAAUGGAUCCACAUCUACGAAUUCGUACCAUAGAGAGUUUCCGCUCACCGAGAUCGGAAGAGCACACGU
B9: target 1 U3G,A9C (mixed)
RNA 1: B1 RNA 1
RNA 2: B1 RNA 2 with U38A, U39G, A43C, U49G
B10: target 1 insA 3' of 21,insC 3' of 9 (mixed)
RNA 1: B1 RNA 1
RNA 2: B5 RNA 2 with U33A, A34U, U44A, A45C
B11: target 1 A1U,U11G (mixed)
RNA 1: B1 RNA 1
RNA 2: B1 RNA 2 with U38A, U39G, U41G, A51U
B12: target 1 insC 3' of 17,insC 3' of 3 (mixed)
RNA 1: B1 RNA 1
RNA 2: B3 RNA 2 with U31C, C32A, A33U, U34A, A35G, G36C, A52C, C53A
B13: target 1 G13A,A14U (mixed)
RNA 1: B1 RNA 1
RNA 2: B1 RNA 2 with U39A
B14: target 1 insU 3' of 22,insA 3' of 2 (mixed)
RNA 1: B1 RNA 1
RNA 2: B3 RNA 2 with C53A
B15: target 1 insA 3' of 21,insG 3' of 16 (mixed)
RNA 1: B1 RNA 1
RNA 2: B5 RNA 2 with U33A, A34U, A39G, G40A, U42G
B16: target 1 G5U,A14C (mixed)
RNA 1: B1 RNA 1
RNA 2: B1 RNA 2 with U38C, U39G, G47U
B17: target 1 insU 3' of 9,insA 3' of 6 (mixed)
RNA 1: B1 RNA 1
RNA 2: B2 RNA 2 with C44U, G48A, C49G, A50C
B18: target 1 insA 3' of 6,insU 3' of 4 (mixed)
RNA 1: B1 RNA 1
RNA 2: B2 RNA 2 with C44U, U45C, C47A, A50U
B19: target 1 insC 3' of 12,insA 3' of 8 (mixed)
RNA 1: B1 RNA 1
RNA 2: B2 RNA 2 with U41C, A43U, C44A, C46A, G48C, C49G, A50C
B20: target 1 insU 3' of 5,insC 3' of 5 (mixed)
RNA 1: B1 RNA 1
RNA 2: B2 RNA 2 with C44U, U45C, C47G, G48U, A50C
B21: target 1 U3G,G5A (mixed)
RNA 1: B1 RNA 1
RNA 2: B1 RNA 2 with U38A, U39G, G47A, U49G
B22: target 1 del11,del13 (mixed)
RNA 1: B1 RNA 1
RNA 2: B8 RNA 2 with U41A
B23: target 1 insA 3' of 19,insA 3' of 11 (mixed)
RNA 1: B1 RNA 1
RNA 2: B5 RNA 2 with U43A
B24: target 1 insA 3' of 17,insC 3' of 3 (mixed)
RNA 1: B1 RNA 1
RNA 2: B2 RNA 2 with G37A, A38G, G39A, U41G, A43U, C44A, A50U, U51C
B25: target 1 insA 3' of 5,insU 3' of 2 (mixed)
RNA 1: B1 RNA 1
RNA 2: B2 RNA 2 with C44U, U45C, C47G, G48A, A50U, U51C, C52U
B26: target 1 C2A,G12C (mixed)
RNA 1: B1 RNA 1
RNA 2: B1 RNA 2 with U38A, U39G, G40C, C50A
B27: target 1 C6A,C7A (mixed)
RNA 1: B1 RNA 1
RNA 2: B1 RNA 2 with U38A, U39G, C45A, C46A
B28: target 1 A9U,A18C (mixed)
RNA 1: B1 RNA 1
RNA 2: B1 RNA 2 with A34C, U38A, U39G, A43U
B29: target 1 insG 3' of 22,insA 3' of 3 (mixed)
RNA 1: B1 RNA 1
RNA 2: B3 RNA 2 with U31G, C51A, A52C, C53A
B30: target 1 insU 3' of 22,insG 3' of 1 (mixed)
RNA 1: B1 RNA 1
RNA 2: B3 RNA 2 with C53G
B31: target 1 G5C,G13U (mixed)
RNA 1: B1 RNA 1
RNA 2: B1 RNA 2 with U38A, G47C

Here are results for 31 molecules from article PMC10786891, “Massively parallel profiling of RNA-targeting CRISPR-Cas13d”.

Numbering of substitutions follows the chain as printed. Names may count otherwise.

By Kd is commonly meant the free concentration of one partner at which half of the binding sites on the other are occupied at equilibrium, for simple one-to-one binding. A lower Kd goes with tighter binding.

This series addresses T1, EsCas13d, nuclease-dead. Briefly: crRNA (strand 1, pre-loaded); Mg2+; 40 mM Tris-HCl pH 7.5, 150 mM NaCl, 6 mM MgCl2, 1 mM DTT, 0.1% Tween-20, 0.2 mg/ml BSA; 25 C; 10 min per concentration, then washed. The following applies: tags: His6-TwinStrep-SUMO cleaved; N-terminal SNAP kept (SNAP-Surface 488); label: 3' end held by stalled T7 RNA polymerase.
On to B1, for which the Kd stood at 8.2 ± 0.4 nM. Next, B2: 9.5 ± 1 nM.

Consider B3, for which the dissociation constant Kd amounted to 29.1 ± 2.4 nM. Take B4: the Kd was 4.87 ± 0.25 nM. To B5 belongs 17.9 ± 1.2 nM; to B6, 13.2 ± 0.7 nM. To B7 belongs 17.4 ± 1 nM; to B8, 21.3 ± 1.1 nM; to B9, 9.4 ± 0.7 nM. To B10 belongs 31.5 ± 2 nM; to B11, 20.8 ± 0.9 nM. For the molecule B12, the Kd amounted to 60 ± 13 nM.

In turn, B13 returned a Kd of 6.6 ± 0.7 nM. Compared with the last molecule, the Kd is about 9.1-fold lower. Next, B14: 33.5 ± 2.8 nM.

The molecule B15 returned a Kd of 51 ± 5 nM. In turn, B16 gave a Kd of 20.7 ± 1.5 nM. This Kd is about 2.5-fold lower than that of the molecule before.

As for B17, the Kd came to 23.5 ± 2.7 nM.

B18: the affinity, expressed as Kd, was 19.8 ± 1.1 nM. To B19 belongs 12 ± 0.9 nM; to B20, 35 ± 4 nM; to B21, 43 ± 4 nM. B22: binding was put at a Kd of 11.1 ± 0.9 nM. To B23 belongs 41.3 ± 2.2 nM. Next, B24: 14.8 ± 1.1 nM. B25 yielded a Kd of 14.7 ± 0.9 nM. B26 gave a Kd of 7.21 ± 0.25 nM. As to B27, the Kd came to 7.47 ± 0.35 nM. Molecule B28 showed a Kd of 60 ± 5 nM. This Kd lies about 8-fold higher than the previous one. In the case of B29, binding was put at a Kd of 25.6 ± 2.3 nM. In turn, B30 had a Kd of 35 ± 4 nM.

With B31, the affinity, expressed as Kd, was 40 ± 9 nM.
